Source: patent publication US20260207767A1 (ANAVEON, published 2026)
One block for each binder: values may come before it.

What was measured:
[1] = biological target: T1, IL-2R CD122-CD132 on Jurkat-PD1+CD122+ cells (UniProt P14784 27-551; P31785 23-369); test: cell-based or functional assay
T1 sequence (looked up) 1: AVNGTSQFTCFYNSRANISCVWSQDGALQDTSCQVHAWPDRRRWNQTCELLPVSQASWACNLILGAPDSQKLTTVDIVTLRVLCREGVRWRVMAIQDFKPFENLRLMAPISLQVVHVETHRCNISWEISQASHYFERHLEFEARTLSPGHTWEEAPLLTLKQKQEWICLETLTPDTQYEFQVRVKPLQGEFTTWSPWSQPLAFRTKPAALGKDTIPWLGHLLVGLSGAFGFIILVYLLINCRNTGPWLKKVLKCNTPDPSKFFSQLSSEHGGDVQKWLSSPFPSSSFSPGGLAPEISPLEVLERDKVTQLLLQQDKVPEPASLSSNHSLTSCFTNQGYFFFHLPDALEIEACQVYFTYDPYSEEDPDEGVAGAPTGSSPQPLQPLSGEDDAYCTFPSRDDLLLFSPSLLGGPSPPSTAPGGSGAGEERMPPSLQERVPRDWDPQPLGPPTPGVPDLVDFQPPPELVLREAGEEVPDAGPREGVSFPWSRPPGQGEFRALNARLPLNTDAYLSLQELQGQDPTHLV
T1 sequence (looked up) 2: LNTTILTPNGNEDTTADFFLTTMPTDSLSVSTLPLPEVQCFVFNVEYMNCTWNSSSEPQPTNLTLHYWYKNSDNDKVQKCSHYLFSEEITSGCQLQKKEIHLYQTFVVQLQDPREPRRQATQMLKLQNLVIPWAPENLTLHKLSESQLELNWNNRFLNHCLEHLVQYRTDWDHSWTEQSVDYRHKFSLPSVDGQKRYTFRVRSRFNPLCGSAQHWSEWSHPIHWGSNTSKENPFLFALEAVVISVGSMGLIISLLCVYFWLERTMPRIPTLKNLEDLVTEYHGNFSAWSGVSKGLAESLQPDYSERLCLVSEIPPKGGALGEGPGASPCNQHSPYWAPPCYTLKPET

[2] = biological target: T2, human PD-1 expressed on cells (human, UniProt Q15116 25-288); test: cell-based or functional assay
T2 sequence (Q15116 25-288): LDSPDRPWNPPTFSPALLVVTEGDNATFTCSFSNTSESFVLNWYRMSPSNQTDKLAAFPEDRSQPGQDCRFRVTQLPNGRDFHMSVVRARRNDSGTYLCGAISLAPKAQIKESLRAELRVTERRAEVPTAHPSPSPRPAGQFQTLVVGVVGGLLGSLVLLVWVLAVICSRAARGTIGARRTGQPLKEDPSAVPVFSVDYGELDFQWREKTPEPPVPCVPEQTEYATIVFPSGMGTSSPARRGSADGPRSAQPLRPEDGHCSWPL

[3] = biological target: T3, cynoPD-1 His (AcroBiosystems PD1-C5223) (cynomolgus monkey, UniProt B0LAJ3 25-170); test: SPR; second ka column, taken as cynoPD-1
T3 construct: also called cPD-1; cynomolgus PD-1 His-tagged
T3 sequence (B0LAJ3 entry or part of it limits assumed): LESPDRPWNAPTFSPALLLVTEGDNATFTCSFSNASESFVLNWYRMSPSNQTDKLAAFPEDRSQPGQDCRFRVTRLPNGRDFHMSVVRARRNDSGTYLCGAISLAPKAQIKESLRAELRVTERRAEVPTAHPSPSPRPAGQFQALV
Method: (§1) Anti-human Fc IgG (Jackson) was immobilized on amine reactive CM5 chips (GE Healthcare) using 1×HBS-EP+ running buffer (GE Healthcare). The test antibodies were captured at flow rate 10 μl/min with 30 s contact time. […] Regeneration was carried out with 10 mM Glycine-HCl, pH 1.5 at flow rate 10 μL/min. This protocol is to be used, unless stated otherwise, in determination of Kd wherever used to define the KD of antibodies specified herein, with adaptions where necessary with regard to the nature of the interaction partners.
Every position in the antibody VH and VL-CDRs was mutated by PCR using a mutagenic primer containing a degenerate codon NNS at a specific CDR position, introducing a combination of all 20 amino acids. The library of single mutants was screened by scFv capture ELISA using a redundancy factor of 4 (on 96-well plate er position). Clones displaying ≥2× ELISA signal compared to the wild-type scFv were sequenced, and clones with unique sequences were re-grown, re-screened by capture ELISA and ranked by dose-dependent ELISA on human and cyno antigens, and by FACS using human antigen expressing cells. Affinity improving mutations were used to design a combinatorial library using the Kunkel method. The library was screened by scFv capture ELISA using the redundancy factor of 4 (4× number of combinations). Clones displaying ≥2× ELISA signal compared to the wild-type scFv were sequenced, and clones with unique sequences were re-grown, re-screened by capture ELISA and ranked by dose-dependent ELISA on human and cyno antigens, and by FACS using human antigen expressing cells.

[4] = biological target: T4, recombinant hPD-1 (construct not stated) (human, UniProt Q15116 25-167, limits assumed); test: ELISA
T4 construct: also called huPD-1; Human PD1
T4 sequence (Q15116 25-167 limits assumed): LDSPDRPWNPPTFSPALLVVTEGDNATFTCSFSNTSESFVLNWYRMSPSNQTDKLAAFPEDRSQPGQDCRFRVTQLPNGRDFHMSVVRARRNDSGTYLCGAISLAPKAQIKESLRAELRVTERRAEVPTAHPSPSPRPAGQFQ

[5] = biological target: T5, recombinant cynoPD-1 (construct not stated) (cynomolgus monkey, UniProt B0LAJ3 25-170); test: ELISA
T5 construct: not shown: probably His as elsewhere

[6] = biological target: T6, hPD-1 Avi-Tag Biotin (AcroBiosystems PD1-H82E4) (human, UniProt Q15116 25-167, biotin on Avi-Tag); test: SPR, Ab captured, PD-1 analyte
T6 construct: bought; also called human PD-1
T6 sequence (Q15116 25-167 limits assumed): as above
Method: as §1, with “partners. […]” for “partners.”

[7] = biological target: T2, human PD-1 expressed on cells; test: flow cytometry, CHO-S hPD-1
[8] = biological target: T7, cynomolgus PD-1 expressed on cells (cynomolgus monkey, UniProt B0LAJ3 25-288); test: flow cytometry, CHO-S Cyno-PD-1
T7 construct: also called CHO-S Cyno-PD-1; 293:cyPD1
T7 sequence (B0LAJ3 entry or part of it limits assumed): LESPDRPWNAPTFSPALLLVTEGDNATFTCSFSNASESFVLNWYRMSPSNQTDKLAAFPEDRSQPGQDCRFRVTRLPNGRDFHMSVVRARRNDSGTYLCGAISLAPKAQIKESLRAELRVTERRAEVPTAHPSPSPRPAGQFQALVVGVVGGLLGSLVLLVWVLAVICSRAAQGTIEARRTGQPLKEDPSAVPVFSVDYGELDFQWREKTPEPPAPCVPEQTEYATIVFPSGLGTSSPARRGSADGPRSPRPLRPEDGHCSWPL

B1: NZA596 (bispecific antibody, human IgG1, kappa, lambda, L234A L235A)
heavy 1: EVQLLESGGGLVQPGGSLRLSCAASGFTFSINAMTWVRQAPGKGLEWVSTISGSGFSTYYADSLKGRFTISRDNSKNTLYLQMNSLRAEDTAVYYCAKEVYGDYWGQGTLVTVSSASTKGPSVFPLAPSSKSTSGGTAALGCLVKDYFPEPVTVSWNSGALTSGVHTFPAVLQSSGLYSLSSVVTVPSSSLGTQTYICNVNHKPSNTKVDKRVEPKSCDKTHTCPPCPAPEAAGGPSVFLFPPKPKDTLMISRTPEVTCVVVDVSHEDPEVKFNWYVDGVEVHNAKTKPREEQYNSTYRVVSVLTVLHQDWLNGKEYKCKVSNKALAAPIEKTISKAKGQPREPQVCTLPPSREEMTKNQVSLSCAVKGFYPSDIAVEWESNGQPENNYKTTPPVLDSDGSFFLVSKLTVDKSRWQQGNVFSCSVMHEALHNHYTQKSLSLSPGK
light 1: not shown
heavy 2: EVQLVQSGAEVKKPGESLKISCKGSGYAFTNYLIEWVRQMPGKGLEWMGVINPGSGGTNYNEKFKGQVTISADKSISTAYLQWSSLKASDTAMYYCARWRGEGYYAYFDVWGQGTTVTVSSASTKGPSVFPLAPSSKSTSGGTAALGCLVKDYFPEPVTVSWNSGALTSGVHTFPAVLQSSGLYSLSSVVTVPSSSLGTQTYICNVNHKPSNTKVDKRVEPKSCDKTHTCPPCPAPEAAGGPSVFLFPPKPKDTLMISRTPEVTCVVVDVSHEDPEVKFNWYVDGVEVHNAKTKPREEQYNSTYRVVSVLTVLHQDWLNGKEYKCKVSNKALAAPIEKTISKAKGQPREPQVYTLPPCREEMTKNQVSLWCLVKGFYPSDIAVEWESNGQPENNYKTTPPVLDSDGSFFLYSKLTVDKSRWQQGNVFSCSVMHEALHNHYTQKSLSLSPGK
light 2: not shown
EC50 (read off the curve), % pSTAT5+ of CFSE+ cells pre-blocked with Nivolumab [panel CFSE+ cells] [1]: ~0.9 nM
EC50 (read off the curve), % pSTAT5+ of CFSE+ cells pre-blocked with Pembrolizumab [panel CFSE+ cells] [1]: ~0.9 nM
EC50 (read off the curve), % pSTAT5+ of CFSE+ cells; No blocking [panel CFSE+ cells] [1]: ~0.6 nM
EC50 (read off the curve), % pSTAT5+ of CTV+ cells; No blocking [panel CTV+ cells] [1]: ~0.5 nM
EC50 (read off the curve), % pSTAT5+ of CTV+ cells; mixed with CFSE+ cells pre-blocked with Nivolumab [panel CTV+ cells] [1]: ~0.6 nM
EC50 (read off the curve), % pSTAT5+ of CTV+ cells; mixed with CFSE+ cells pre-blocked with Parental mAb [panel CTV+ cells] [1]: ~0.6 nM
EC50 (read off the curve), % pSTAT5+ of CTV+ cells; mixed with CFSE+ cells pre-blocked with Pembrolizumab [panel CTV+ cells] [1]: ~0.6 nM
EC50 of NZA596, % pSTAT5+ Jurkat PD-1+CD122+ cells, pre-incubation with Medium [2]: 0.85 nM
EC50 of NZA596, pre-incubation with 21A08Ap1 [2]: 15.6 nM
EC50 of NZA596, pre-incubation with Cemiplimab [2]: 1.67 nM
EC50 of NZA596, pre-incubation with Cetrelimab [2]: 0.76 nM
EC50 of NZA596, pre-incubation with Dostarlimab (m102) [2]: 0.96 nM
EC50 of NZA596, pre-incubation with Ezabenlimab [2]: 1.71 nM
EC50 of NZA596, pre-incubation with Nivolumab [2]: 1.1 nM
EC50 of NZA596, pre-incubation with Pembrolizumab [2]: 1.02 nM
EC50 of NZA596, pre-incubation with Tislelizumab [2]: 1.47 nM
EC50 of NZA596, pre-incubation with Toripalimab [2]: 0.65 nM
EC50 of NZA596, pre-incubation with Zeluvalimab [2]: 0.88 nM
fold reduction in NZA596 Potency, pre-incubation with 21A08Ap1 [2]: 18.2 fold
fold reduction in NZA596 Potency, pre-incubation with Cemiplimab [2]: 1.95 fold
fold reduction in NZA596 Potency, pre-incubation with Cetrelimab [2]: 0.89 fold
fold reduction in NZA596 Potency, pre-incubation with Dostarlimab (m102) [2]: 1.12 fold
fold reduction in NZA596 Potency, pre-incubation with Ezabenlimab [2]: 2 fold
fold reduction in NZA596 Potency, pre-incubation with Nivolumab [2]: 1.28 fold
fold reduction in NZA596 Potency, pre-incubation with Pembrolizumab [2]: 1.2 fold
fold reduction in NZA596 Potency, pre-incubation with Tislelizumab [2]: 1.72 fold
fold reduction in NZA596 Potency, pre-incubation with Toripalimab [2]: 0.77 fold
fold reduction in NZA596 Potency, pre-incubation with Zeluvalimab [2]: 1.03 fold

B2: XVT458-z2-m1 (antibody, V domains shown)
VH: QVQLVQSGAEVKKPGASVKVSCKASGYTFTNFYIHWVRQAPGQGLEWMGSIYPNYGFTAYNQKFKDRVTMTVDTSTSTAYMELRSLRSDDTAVYYCARGYSYAMDYWGQGTTVTVSS
VL: DIQMTQSPSSVSASVGDRVTITCSASQGIWGDLNWYQQKPGKAPKLLIYHTSQLHSDVPSRFSGSGSGTDFTLTISSLQPEDFATYYCQGYSKDLLTFGGGTKLEIK
notes: IgG format; also called z2-XVT458-m1; z2_XVT458m1
kon [3]: 185000 M⁻¹ s⁻¹
EC50 [4]: 0.083 nM
Max OD [4]: 3.39 OD
EC50 [5]: 0.087 nM
Max OD [5]: 3.58 OD
Kd [6]: 0.148 nM
koff [6]: 3.28e-05 s⁻¹
kon [6]: 222000 M⁻¹ s⁻¹
EC50 [7]: 1.5 nM
Max MFI [7]: 41000 MFI
Max MFI [8]: 70 MFI

B3: XVT458-z2-m4 (antibody, V domains shown)
VH: QVQLVQSGAEVKKPGASVKVSCKASGYTFTNFYIHWVRQAPGQGLEWMGRIYPNYGITAYNQKFKDRVTMTVDTSTSTAYMELRSLRSDDTAVYYCARGYSYAMDYWGQGTTVTVSS
VL: DIQMTQSPSSVSASVGDRVTITCSASQGISGDLNWYQQKPGKAPKLLIYHTSSRHSGVPSRFSGSGSGTDFTLTISSLQPEDFATYYCQGYSKDLLTFGGGTKLEIK
notes: IgG format; also called z2_XVT458m4
kon [3]: 134000 M⁻¹ s⁻¹
EC50 [4]: 0.079 nM
Max OD [4]: 3.3 OD
EC50 [5]: 0.098 nM
Max OD [5]: 3.54 OD
Kd [6]: 1.22 nM
koff [6]: 0.000173 s⁻¹
kon [6]: 142000 M⁻¹ s⁻¹
EC50 [7]: 0.96 nM
Max MFI [7]: 43400 MFI
Max MFI [8]: 258 MFI

B4: XVT458-z2-m3 (antibody, V domains shown)
VH: QVQLVQSGAEVKKPGASVKVSCKASGYTFTNFYIHWVRQAPGQGLEWMGRIYPNYGITAYNQKFKDRVTMTVDTSTSTAYMELRSLRSDDTAVYYCARGYSYAMDYWGQGTTVTVSS
VL: DIQMTQSPSSVSASVGDRVTITCSASQGISGDLNWYQQKPGKAPKLLIYHTSQRHSDVPSRFSGSGSGTDFTLTISSLQPEDFATYYCQGYSKDLLTFGGGTKLEIK
notes: IgG format; also called z2_XVT458m3
kon [3]: 138000 M⁻¹ s⁻¹
EC50 [4]: 0.089 nM
Max OD [4]: 3.37 OD
EC50 [5]: 0.094 nM
Max OD [5]: 3.54 OD
Kd [6]: 0.417 nM
koff [6]: 6.57e-05 s⁻¹
kon [6]: 158000 M⁻¹ s⁻¹
EC50 [7]: 1.34 nM
Max MFI [7]: 41100 MFI
Max MFI [8]: 124 MFI

Other lines, results leading:

kon [3]: 111000 M⁻¹ s⁻¹
EC50 [4]: 0.051 nM
Max OD [4]: 3.42 OD
EC50 [5]: 0.056 nM
Max OD [5]: 3.58 OD
Kd [6]: 0.787 nM
koff [6]: 9.77e-05 s⁻¹
kon [6]: 124000 M⁻¹ s⁻¹
EC50 [7]: 0.84 nM
Max MFI [7]: 42400 MFI
Max MFI [8]: 335 MFI
B5: XVT458-z2-m5 (antibody, V domains shown)
VH: QVQLVQSGAEVKKPGASVKVSCKASGYTFTNFYIHWVRQAPGQGLEWMGRIYPNYGITAYNQKFKDRVTMTVDTSTSTAYMELRSLRSDDTAVYYCARGYSYAMDYWGQGTTVTVSS
VL: DIQMTQSPSSVSASVGDRVTITCSASQGIYGDLNWYQQKPGKAPKLLIYHTSSRHSGVPSRFSGSGSGTDFTLTISSLQPEDFATYYCQAYSKDLLTFGGGTKLEIK
notes: IgG format; also called z2_XVT458m5

kon [3]: 127000 M⁻¹ s⁻¹
EC50 [4]: 0.076 nM
Max OD [4]: 3.34 OD
EC50 [5]: 0.086 nM
Max OD [5]: 3.56 OD
Kd [6]: 1.24 nM
koff [6]: 0.00019 s⁻¹
kon [6]: 153000 M⁻¹ s⁻¹
EC50 [7]: 1.15 nM
Max MFI [7]: 42800 MFI
Max MFI [8]: 367 MFI
B6: XVT458-z2-m2 (antibody, V domains shown)
VH: QVQLVQSGAEVKKPGASVKVSCKASGYTFTNFYIHWVRQAPGQGLEWMGRIYPNYGFTAYNQKFKDRVTMTVDTSTSTAYMELRSLRSDDTAVYYCARGYSYAMDYWGQGTTVTVSS
VL: DIQMTQSPSSVSASVGDRVTITCSASQGIYGDLNWYQQKPGKAPKLLIYHTSSLHSGVPSRFSGSGSGTDFTLTISSLQPEDFATYYCQAYSKDLLTFGGGTKLEIK
notes: IgG format; also called z2_XVT458m2
